We go through one substance from patent EP4670793A1.

This assay has as its target human C1q (human) (UniProt P02745). Kind of assay: C1q (50 nM) with 100 nM antibody on TNFa-activated HUVECs; bound C1q detected with biotinylated polyclonal anti-C1q and imaging; normalised to isotype IgG.
Sequence of UniProt P02745 (P02745 23-245, chain 1 of 3): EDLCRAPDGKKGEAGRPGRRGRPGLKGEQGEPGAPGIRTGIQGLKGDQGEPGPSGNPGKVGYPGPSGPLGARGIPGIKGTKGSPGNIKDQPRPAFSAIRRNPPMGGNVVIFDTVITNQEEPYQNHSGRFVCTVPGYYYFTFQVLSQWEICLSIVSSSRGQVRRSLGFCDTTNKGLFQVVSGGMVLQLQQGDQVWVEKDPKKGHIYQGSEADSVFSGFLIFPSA
Sequence of UniProt P02745 (chain, as listed by the source, chain 2 of 3): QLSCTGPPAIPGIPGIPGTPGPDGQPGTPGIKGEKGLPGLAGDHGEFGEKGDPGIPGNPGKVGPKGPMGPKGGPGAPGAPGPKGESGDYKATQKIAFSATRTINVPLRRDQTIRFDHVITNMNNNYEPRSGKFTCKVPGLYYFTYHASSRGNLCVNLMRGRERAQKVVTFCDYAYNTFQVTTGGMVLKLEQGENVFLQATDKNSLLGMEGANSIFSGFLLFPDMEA
Sequence of UniProt P02745 (chain, as listed by the source, chain 3 of 3): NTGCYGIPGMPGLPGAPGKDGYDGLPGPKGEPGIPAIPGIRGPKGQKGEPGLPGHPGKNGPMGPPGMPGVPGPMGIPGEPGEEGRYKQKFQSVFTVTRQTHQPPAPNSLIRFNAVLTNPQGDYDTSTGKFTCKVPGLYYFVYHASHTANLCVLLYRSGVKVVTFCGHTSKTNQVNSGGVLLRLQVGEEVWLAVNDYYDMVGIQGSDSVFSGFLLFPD

“control antibody comprising murine heavy and light chain variable regions of the anti-C1q antibody M1 (Annexon Biosciences) with hIgG1 and kappa constant regions” gave a % inhibition of binding of C1q to activated endothelial cells of 94%.
